According to paper PMC8557155 (Annals of Nuclear Medicine, 2021):
Read-outs that look alike come from different tables or passages of the source.

Key:
[1] = in vivo; cited from earlier work
Source text: This study is the first clinical trial on ^177Lu-DOTATATE for unresectable NETs in Japan. At 29.6 GBq, the absorbed dose to the kidney and red bone marrow was 16.8 Gy and 0.722 Gy, respectively. These values were lower than the reported threshold dose for the kidney (23 Gy) and the red bone marrow (2 Gy). The calculated absorbed doses to the kidney, spleen, red bone marrow, and liver were 0.568, 0.559, 0.0244 and 0.247 mGy/MBq, respectively, in this study. We compared the calculated absorbed dose to each organ with previously published studies in Caucasian populations. […] In this study, the primary lesions were located in the pancreas, stomach, and rectum. Therefore, many patients underwent pancreatectomy and colectomy before enrollment in the study; diarrhea is likely to occur more in such patients compared to primary midgut cases because pancreatic enzyme deficiency o ...

[2] = in vivo; cited from earlier work; remark: listed apart in the source
[3] = parameters: species or system human (Japanese patients); settings: in vivo
Protocol: Image processing and radioactivity quantification were performed by a nuclear medicine expert at site, and dosimetry calculation was performed by the sponsor of the study. All images were taken using the Symbia T-16 SPECT/CT scanner (Siemens). The dual-headed gamma camera was equipped with a 0.952-cm (0.375-in)-thick NaI crystal and a medium-energy low penetration collimator. An energy window of ± 10% was applied around the one dominant gamma ray energies of ^177Lu (208 keV). The matrix size was 256 × 1024. […] Radioactivity quantification was performed on patient images, and the geometric mean was calculated. Regions of interests (ROIs) were drawn around the kidneys, liver, spleen, other organs, and whole body on the planar images. Tumor tissue within the organs was excluded. The absorbed dose to each organ was estimated using the OLINDA/EXM 1.0 (Vanderbilt University), a software based on the Medical Internal Radiation Dose algorithm, which is widely used for established beta and gamma emitting radionuclides. The biological effective dose (BED) for the kidneys were estimated using the SAS software, version 9.4 (SAS Institute).

[4] = in vivo; cited from earlier work; remark: listed apart in the source
Source text: This study is the first clinical trial on ^177Lu-DOTATATE for unresectable NETs in Japan. At 29.6 GBq, the absorbed dose to the kidney and red bone marrow was 16.8 Gy and 0.722 Gy, respectively. These values were lower than the reported threshold dose for the kidney (23 Gy) and the red bone marrow (2 Gy). The calculated absorbed doses to the kidney, spleen, red bone marrow, and liver were 0.568, 0.559, 0.0244 and 0.247 mGy/MBq, respectively, in this study. We compared the calculated absorbed dose to each organ with previously published studies in Caucasian populations. In the prev ... || In this study, severe lymphopenia occurred in two (33.3%) cases, and other hematological toxicities were grade 1 or 2 leukocytopenia and thrombocytopenia. This finding was very similar to that reported in the Erasmus study. […] In the present study, lymphocyte, erythrocyte, and leukocyte counts gradua ...

[5] = clinical; parameters: species or system human (Japanese patients); settings: in vivo; for dose excreted: human, iv, 7.4 GBq, total radioactivity
[6] = parameters: species or system human (Japanese patients); settings: in vivo; remark: listed apart in the source

## C[C@@H](O)[C@H](NC(=O)[C@@H]1CSSC[C@H](NC(=O)[C@@H](Cc2ccccc2)NC(=O)CN2CCN(CC(=O)O)CCN(CC(=O)O)CCN(CC(=O)O)CC2)C(=O)N[C@@H](Cc2ccc(O)cc2)C(=O)N[C@H](Cc2c[nH]c3ccccc23)C(=O)N[C@@H](CCCCN)C(=O)N[C@@H]([C@@H](C)O)C(=O)N1)C(=O)O [177Lu-DOTATATE, ^177Lu-DOTA^0-Tyr^3-octreotate, metal not drawn]
[1]
  Diarrhea, frequency: 28.8%
  Severe renal toxicities, frequency: 0.9%
[2]
  Absorbed dose to the spleen: 0.645 mGy/MBq
[3]
  BED for the kidneys for 7.4 GBq, max: 5.38 Gy/7.4 GBq
  BED for the kidneys for 7.4 GBq, mean: 4.25 Gy/7.4 GBq
  BED for the kidneys for 7.4 GBq, min: 3.04 Gy/7.4 GBq
  BED for the kidneys for 29.6 GBq, max: 21.5 Gy/29.6 GBq
  BED for the kidneys for 29.6 GBq, mean: 17.0 Gy/29.6 GBq
  BED for the kidneys for 29.6 GBq, median: 17.2 Gy/29.6 GBq
  BED for the kidneys for 29.6 GBq, min: 12.2 Gy/29.6 GBq
  BED for the kidneys, max: 0.727 mGy/MBq
  BED for the kidneys, mean: 0.574 mGy/MBq
  BED for the kidneys, median: 0.580 mGy/MBq
  BED for the kidneys, min: 0.411 mGy/MBq
  Effective radioactivity in the kidney at 1 h: 2.39 ± 0.535%
  Effective radioactivity in the liver at 1 h: 4.97 ± 2.01%
  Effective radioactivity in the spleen at 1 h: 0.812 ± 0.405%
  Fraction of the effective radioactivity retained in the whole body at 1 h: 71.4 ± 4.9%
  Fraction of the effective radioactivity retained in the whole body at 4 h: 39.5 ± 5.7%
  Fraction of the effective radioactivity retained in the whole body at 24 h: 16.0 ± 3.5%
  Fraction of the effective radioactivity retained in the whole body at Day 6: 5.8 ± 1.3%
[4]
  Severe lymphopenia at the follow-up visit after 3 month final treatment: 25.8%
  Severe lymphopenia at the follow-up visit after 30 months final treatment: 5.6%
  Severe lymphopenia, frequency: 50.0%
  Severe renal toxicities, frequency: 1%
[5]; Biological cumulative urine excretion of radioactivity at 24 h after administration
  dose excreted: 71.2%
[5]; Biological cumulative urine excretion of radioactivity in the first 4 h
  dose excreted: 53.7%
[5]; Cumulative urinary excretion of radioactivity within the initial 6 h
  dose excreted: 60.1%
[5]
  Effective urinary radioactivity concentration, 0–1 h: 4.7 ± 1.9 GBq/L
  Effective urinary radioactivity concentration, 4–6 h: 1.3 ± 1.1 GBq/L
  Effective urinary radioactivity concentration, 6–24 h: 0.3 ± 0.1 GBq/L
  Effective urinary radioactivity concentration, 24–48 h: 0.07 ± 0.03 GBq/L
[6]
  Fraction of the injected activity retained in the blood at 20 min after the injection: 0.00351 % dose/g
  Fraction of the injected activity retained in the blood at 4 h after the injection: 0.00077 % dose/g
[6]; iv
  Effective half-time, distribution phase: 2.37 ± 0.30 h
  Effective half-time, excretion phase: 42.7 ± 2.44 h
